Experimental data as given in the supplement of paper PMC12764529.
± gives the half width of the 95% confidence interval.

Legend:
[1] = folding stability dG unfold from chymotrypsin proteolysis; higher = more stable
In short: (§1)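 K50 was inferred by Bayesian fitting of sequencing counts obtained after protease digestion of designed mini-proteins. Unfolding free energy was derived by comparison with a sequence-predicted unfolded-state K50 and a shared folded-state K50, for each protease or both combined. The mini-proteins were under 80 residues, had no cysteine, were carried in a PA-tagged cDNA display construct, and were kept only if AlphaFold2 dimer inter-PAE exceeded 15.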

[2] = folding stability dG unfold from trypsin proteolysis; higher = more stable
In short: as §1

[3] = folding stability dG unfold (combined trypsin and chymotrypsin); higher = more stable
In short: as §1

| Sequence | folding stability dG unfold [1] [kcal/mol] | folding stability dG unfold [2] [kcal/mol] | folding stability dG unfold [3] [kcal/mol] |
| --- | --- | --- | --- |
| SAGGSAGGSAGGFYDPNGKWRIKIKPEVFEFPNYRFIKMKIEVDGRPIMEMPMLIPPNDSAGGSAGGSAGGS [r10_628_TrROS] | 2.45 ± 0.16 | 3.41 ± 0.31 | 2.73 ± 0.34 |
| SAGGSAGGSAEKRIVAKVTEVRENEDGEKTVRVRITLPNGEELEVEVRRVERVGDYLVIELSAGGSAGGSAG [r3_261_TrROS_Hall] | 1.2 ± 0.048 | 1.26 ± 0.037 | 1.29 ± 0.089 |
| SAGGSAGGSAGMIVFTLPDGGLALVLNIEYELEPDEDGNLIIRPRISLSIFPVPADFPILSAGGSAGGSAGG [r17_480_TrMRF] | 4.51 ± 0.068 | 3.2 ± 0.09 | 4.19 ± 0.12 |
| SAGGSAGGSAGSFTVLVTEVLDPDDPLYLKLQKELGLPPENIVRFKLYTFSSPEEVKKKISAGGSAGGSAGG [r11_83_TrMRF] | 1.99 ± 0.13 | 0.923 ± 0.035 | 1.5 ± 0.065 |
| PPGYRPIEIEIPMKVESIEEAKEEVLNFAHELAEAFPNITDINVEVDKIDPNNGYIFAKITIYVGDKTITIS [r1_52_TrROS] | 2.04 ± 0.081 | 0.424 ± 0.13 | 1.8 ± 0.43 |
| SMTLTIEVDPNDPAKVKALIDSTPPDTTVTLVFPQEDGSKPVKTITVKPPLEKPISPENMTPKNVAARKKSA [r9_1103_JUSTAS] | 0.481 ± 0.099 | -0.782 ± 0.69 | 0.118 ± 0.18 |
| SAGGGAMHTVTITDEAGNVTTFTLPTDLDTLKEKIKELFPEKKYEIKKVTRVPGNPGLTTITVKVPKDSAGG [r13_832_JUSTAS] | 1.89 ± 0.064 | 1.28 ± 0.039 | 1.68 ± 0.11 |
| SAMLGAEELVRRIAEEIERRLGVPAGFDVPVRVYRPEDALVIDAYIVARGPDGEPLGERRITLVLRPEDSAG [r14_708_TrMRF] | 3.49 ± 0.051 | 1.94 ± 0.032 | 2.93 ± 0.11 |
| SAGGSAGGSAGGSLSSNGSSLPPVPPAPVTDEPVEFPTPVLVTVSYYPLTGERRVEVLLSAGGSAGGSAGGS [r4_305_JUSTAS] | 0.272 ± 0.07 | -0.291 ± 0.038 | 0.178 ± 0.068 |
| SAGGSAGGSAGGPTVTVKVKLEDGSTATVTYDLDTGELYIEVNGKTYKFPLGSKVEIEEVSAGGSAGGSAGG [r7_434_TrROS_Hall] | 3.56 ± 0.054 | 2.39 ± 0.28 | 3.31 ± 0.17 |
| SAGGWYLRIEPDDGRELEIPMNDPGLPLEDLADKLMKDMPGPMKIKVEFYHPNKPVEHTIKIPLPKNSAGGS [r16_216_TrROS] | 0.436 ± 0.33 | 0.443 ± 0.11 | 0.423 ± 0.28 |
| SAGMKIVVTLPDGWTATSDPSTGLITITDPKTGEPLLGKIPSSEPNKVTLYDPNNGKPLRELDIDEVEGSAG [r5_761_JUSTAS] | 0.748 ± 0.023 | 0.287 ± 0.026 | 0.581 ± 0.053 |
| SASFTLTITPVSTLPGGEVKYEVTVTTPTATVTLSATYDPATGLITVTFPETGSTVTFDPATGTVTVTPSAG [r14_260_JUSTAS] | 5.089 ± 0.032 | 3.93 ± 0.12 | 5.05 ± 0.083 |
| SAGGSAGGSAGGKTIVIEVKEEDIEEIIEAAKKAGADEVIIYNKKTNKKYKIKDGKIEPVSAGGSAGGSAGG [r7_564_TrROS_Hall] | 2.02 ± 0.045 | 1.34 ± 0.032 | 1.81 ± 0.1 |
| SAGGSAPPAVEEIAKILEELFPGYRVVAEAEPVRDPETDEVLLRIRVAVFDENGKVILELEITLPLSAGGSA [r15_1048_TrMRF] | 4.3 ± 0.068 | 3.89 ± 0.054 | 4.19 ± 0.07 |
| SAGGMTVTIPYKGSPELAERVVEAIQEAFPEVRVEEVVVEPGDPTNITITVRFDNDVPASAIAEVLSSAGGS [r16_180_JUSTAS] | 1.55 ± 0.035 | 2.24 ± 0.041 | 1.85 ± 0.071 |
| SAGGSAGGSAGSETYYIKIGDKLYTVTVEPDSITVKYPETSEEKTFSSSLPGISLEEILSSAGGSAGGSAGG [r11_648_JUSTAS] | 1.68 ± 0.054 | 1.63 ± 0.041 | 1.71 ± 0.065 |
| SAGGSAGGSTTLTVDLPFGPATVHITGLPDSFVAFIEFDNPPFRATATIKEISKNGIVIEDIDFSAGGSAGG [r6_982_TrMRF] | 1.9 ± 0.13 | 2.2 ± 0.086 | 2.1 ± 0.22 |
| SAGGSAGGSAGGMRVYEFDSEEEAQAFAEELRAAEPDVREVTIERDPETGKYRVTVVAESAGGSAGGSAGGS [r10_544_JUSTAS] | 4.69 ± 0.091 | 4.24 ± 0.17 | 4.62 ± 0.14 |
| SMTLIVRVEVENENGEKIEKEVEVEVEPGETIEELLKKLNLSEEEVKKVKIEVYVIKDGKLEKKEFTLEKSA [r9_755_TrROS_Hall] | 2.61 ± 0.077 | 1.29 ± 0.2 | 2.29 ± 0.35 |
| SAGGSAGGSAPNQTWVLRITIKFPNGKKRSFQFTFPLDDIKEEIEEEFGIDDIDIEWQPLDSAGGSAGGSAG [r3_220_TrROS] | 2.77 ± 0.069 | 2.63 ± 0.061 | 2.84 ± 0.12 |

| Sequence | folding stability dG unfold [1] [kcal/mol] | folding stability dG unfold [2] [kcal/mol] | folding stability dG unfold [3] [kcal/mol] |
| --- | --- | --- | --- |
| SAGGSAGGSKLSEEEKKKLAKKPKIKIKVKIRNKDGKEYKPGEKVKIEINGKIYEIESIEIEPSAGGSAGGS [r12_43_TrROS_Hall] | 1.36 ± 0.04 | 1.12 ± 0.049 | 1.3 ± 0.085 |
| SAGGSAGGAPPDARVTIEVELKNPDGTPISEEEVIEKLKPLGLEPVEIDVDPETGKVTITVRVLSAGGSAGG [r6_774_JUSTAS] | 1.04 ± 0.092 | 1.69 ± 0.053 | 1.41 ± 0.083 |
| SAGGSLDVKIEITPPDGSTRTLDIEVESEEEAIKIAEELQKELGEGNTLKVRITYPGPKSPVELELKSAGGS [r8_107_JUSTAS] | 2.51 ± 0.046 | 1.53 ± 0.04 | 2.2 ± 0.065 |
| SAGKIKIDVMPPGWFLRIKIEHGGKEQERMIPIPGDSVDEIVKEALDEIQQHFPNKPIKVDIEIYPVDDSAG [r5_180_TrROS] | 1.29 ± 0.37 | 1.03 ± 0.2 | 0.874 ± 0.37 |
| SASEDETVETTTTTTSTFTLPNGETVTLTTTTKTTEKILPETGEVVESTTTTTTVTRTDASTTTTVATSSAG [r14_333_JUSTAS] | 1.22 ± 0.082 | 1.12 ± 0.068 | 1.27 ± 0.11 |
| SAGMVKIEIEVKVEKDEDGRLRVTVRITIYDEKTGEKLKEIEIEVEAPSEEEAERAARKKAEELLKELSAGG [r19_255_TrROS_Hall] | 2.58 ± 0.087 | 3.9 ± 0.18 | 3.25 ± 0.19 |
| SAGGPNWMQMEIWLPPGNPEKIEKIIRDKGWKVEDIKVKEVNPNNGWMRVTIYMPGPWPMDEIKEAVRSAGG [r13_725_TrROS] | 3.6 ± 0.16 | 1.96 ± 0.11 | 3.15 ± 0.25 |
| SAGGSKAKIVEAEIVEFDPEKGKITIRIKANGKTFEIEFPPGVKKIKLKVKLENGEEKEIEITIKPSAGGSA [r2_132_TrROS_Hall] | 3.01 ± 0.14 | 1.85 ± 0.044 | 2.59 ± 0.16 |
| SAGGSAPVVRVEIVVLGTGEVRTLTLEEAKRFLEAHPDKIDRVLVRVEVFEPDASTSDDVDPDGVPSAGGSA [r15_99_TrMRF] | 1.97 ± 0.021 | 2.03 ± 0.034 | 2.04 ± 0.07 |
| SAGGSAGGSAGGKVHPDQPVKLRLTFTVSGVYYDENKPRVETKPVTVEFTALAPDEDALSAGGSAGGSAGGS [r10_745_TrMRF] | 0.208 ± 0.17 | 0.0543 ± 0.12 | 0.185 ± 0.07 |
| SAGGSAGGSAGGPEIVSAEVLAVFDDGKLVKVKLRVPTPGKGYRYLEAVFLVKPGEKLLSAGGSAGGSAGGS [r10_1183_TrMRF] | 2.12 ± 0.033 | 2.05 ± 0.052 | 2.1 ± 0.033 |
| SAGGSAGGSAGGGSMPLLTETRKSLVVDPETGRLREVTTTTIRFPDRNTSQVTTTVTPVSSAGGSAGGSAGG [r7_196_JUSTAS] | 0.139 ± 0.081 | 0.771 ± 0.063 | 0.41 ± 0.14 |
| SAGPTVTVELEIRLPPELRGLSPEELAELLARELEEAGYTVEVVEVEEEDGYVTVRVRVTVPLPPPPPESAG [r5_80_TrROS_Hall] | 3.29 ± 0.13 | 3.59 ± 0.11 | 3.52 ± 0.13 |
| SAGSITIDGLTPDKEQEVKITVTLPLPGGGTVTLELTAKVTYDPATGLAKMPITLPDGTVLPLTLPLPESAG [r5_743_JUSTAS] | 1.93 ± 0.074 | 2.21 ± 0.12 | 2.1 ± 0.093 |
| SAGGPLGNLTLDQIVDLVREAFPDLPVRVDVEPIDEETGYVRVTVEPPLPNGGTARAEFILPILPDDSAGGS [r16_564_TrMRF] | 1.26 ± 0.066 | 0.787 ± 0.019 | 1.07 ± 0.076 |
| SAGGTIEITFMVRTPEEAEDMADMIARMLAREHGMKVTIDDVEVHEYKDPEDGQEYYMVEFRIEIKPSAGGS [r8_171_TrROS] | 4.146 ± 0.04 | 3.23 ± 0.081 | 3.88 ± 0.11 |
| SAGEDGWHVVKIWIMIPGPAQLDEFLEEHPNVEIWPNPNGYFMVRITIRVPVPPPPPERDPDNGEPEPDSAG [r5_129_TrROS] | 4.66 ± 0.064 | 3.73 ± 0.11 | 4.29 ± 0.1 |
| SAGMVIRLTSPTGSLEITITVEPDGETREAVVKAASGEEVSVIPPSVSVEEIKKRFPDVTASEEPLDLPSAG [r5_314_JUSTAS] | 0.653 ± 0.038 | 0.518 ± 0.037 | 0.628 ± 0.071 |
| SAGKVYRIKATAPDGSTAIIEIPENGNAKIKIFYPNGVKEITINLDPNVKIEEILEKFPNFIISSIEEESAG [r5_259_TrMRF] | 3.95 ± 0.22 | 5.01 ± 0.8 | 4.15 ± 0.22 |
| SAGGSAGGSAGGKVIVKEITINEDGTVTIKGEIFDENGELIAEAEFKFRLGDGGPIEFESAGGSAGGSAGGS [r10_484_TrMRF] | 2.462 ± 0.021 | 2.18 ± 0.18 | 2.3 ± 0.16 |
| SAGGSAGGSAGGMPVTFTGENQPVEVLSVDPERPVVVVYYPPTGTLLVALPPTGKVFPVSAGGSAGGSAGGS [r10_440_TrMRF] | 0.492 ± 0.15 | -0.867 ± 0.54 | 0.18 ± 0.14 |
